{"source": "paper PMC8510529", "about": "(mBio, 2021)", "binders": {"B1": {"name": "WNV-116 (antibody, V domains shown)", "VH": "QMQLVESGGGVVQPGRSLRLSCVASGFNFKTYVMNWVRQAPGKGLEWVAVILSDGDNKYYADSVKGRFTISRDNSKNTLFLQMDSLRADDTAVYYCTRVPHCSTSSCYKEYYNYYMDVWGKGTTVSVSS", "VL": "EIVLTQSPATLSLSPGDRATLSCRASQSLSTSLAWYQQKPGQAPRLVIYDASNRAADIPARFSGSGSGTDFTLTIRSLEPEDFAVYYCQQRSNWPPRYTFGQGTKLEIK"}, "B2": {"name": "WNV-99 (antibody, V domains shown)", "VH": "QVRLVESGGGVVQPGRSLRLSCAASGFTLSSYGMHWVRQAPGKGLEWVAIISYDGSDKYYADSVKGRFTISRDNSKNTLYLQMNSLRPEDTAMYYCAKPDRSSSPFAHWGQGTLVTVSS", "VL": "SYELTQPPSVSVSPGQTARITCSGDALPKQYAFWYQQKPGQTPVVVISKDSERPSGIPERFSGSSSGTTVTLTISGVQAEDEADYYCQSADSSGIWVFGGGTKLTVL"}, "B3": {"name": "WNV-98 (antibody, V domains shown)", "VH": "QVQLVESGGGLVKPGGSLRLSCAASGFPFTNYYMSWIRQAPGKGLEWISYITSRGDTAYYADSVKGRFTVARDNSKNSLYLQMNSLRAEDTAMYFCARGGDDYADSWGQGILVTVSS", "VL": "EIVLTQSPATLPLSPGERATLSCRASQSINTNLAWYQQKPGQAPRLLIYETSHRASAIPARFSGSGSGTDFTLKISSLEPEDLAIYYCQQYRNWPQTFGQGTRLEIK"}, "B4": {"name": "WNV-96 (antibody, V domains shown)", "VH": "QVQLVQSGAEVKKPGASVKVSCRPSGYIFTNYYIEWVRQAPGQGLEWMGIINPSGGKTTYAQKFQGRVTMTSDTSTSTVYMELSSLRSDDTAVYYCARDGNGSDYWGQGTRVTVSS", "VL": "DVQMTQSPSSLSASVGDRVTITCRASQNINNYLNWYQQKPGRAPKLLIYATSNLESGVPSRFSGSRSGADFTLTISSLQPEDFASYYCQQSYNAPRTFGHGTKVEIK", "notes": "also called IgG1-WT variant of WNV-96"}, "B5": {"name": "WNV-103 (antibody, V domains shown)", "VH": "EVQLVESGGGLLQPGGSLRLSCAASGFSFSRYWMHWVRQAPGKGLIWVSRINTDGSTTIYADSVKGRFTVSRDNAKNTLFLQMSRLRPEDTAVYYCARVIASPGISYGMDVWGHGTTVTVSS", "VL": "SHELTQPPSVSVSPGQTATITCSGDALPKQYAYWYQQKSGQAPVLVIYKDTKRPSGIPERFSGSSSGTVVTLTISGVQAEDEADYYCQSADISSTYVVFAGGTKLTVL"}, "B6": {"name": "WNV-120 (antibody, V domains shown)", "VH": "KVQLEESGGGWVKPGRSLRLSCGASGFRFDDYAMHWVRQVPGKGLEWVSGISWDSDGIGYADSVKGRFTISRDNAKNSLFLQMNSLRAEDTALYYCVKDKGWLIQGRFDSWGQGIRVTVSS", "VL": "DIVVTQSPDSLAVSLGERVTINCKTSQSVLYTFNNQNYLAWYQQKSGQPPKLLIYWASTRESGVPDRFSGSGSGTDFTLTISRLQAEDVAVYYCQQFYISPPGTFGQGTKVEIK"}, "B7": {"name": "WNV-104 (antibody, V domains shown)", "VH": "QVQLVESGGGVVQPGTSLRLSCAASGFTFRSYGMHWVRQAPGKGLEWVALIWYDGSNKYYADSVKGRFTISRDNSRSTLYLQMNSLRAEDTAVYYCARDLGEYDSLVGPLYTARLGYWGQGTLVTVSS", "VL": "DIQMTQSPSSLSASVGDRVTMTCQASQDISNYLNWYQQKPGKAPNLLIYDASNLETGVPSRFSGSGSGTDFTFTISSLQPEDIATYYCQQYDNLPITFGQGTRLEIK"}, "B8": {"name": "WNV-117 (antibody, V domains shown)", "VH": "EVQLLESGGGLVQPGGSLRLSCAASGFTFSNYAMSWVRQAPGKGLEWVSSISDRGDYTYYADSVKGRFTISRDKSRNTLYLQIKSLRAEDTAVYYCAKCWGRGSYSGIPD", "VL": "B7 VL with M21I, T22S, Q27H, S30T, Y32F, N45K, T56A, P95F"}, "B9": {"name": "WNV-113 (antibody, V domains shown)", "VH": "QITLKESGPTLVKPTQTLTVTCTFSGFSLNTNGVGVGWIRQPPGKALEWLALIYWDDVKRYRPSLESRLTITKDTSKNQVVLTMTDMDPVDTGTYYCAHRFHSRGWYTFDYWGQGTRVTVSS", "VL": "SYVLTQPPSVSVAPGQTARITCGGNNIGGKNVHWYQQKPGQAPVLVVYDDNDRPSGIPERFSGSNSGNTATLTISRVEAGDEADFYCQVWDSNSEHVVFGGGTKLTVL"}, "B10": {"name": "WNV-100 (antibody, V domains shown)", "VH": "QLQLQESGSGLVKPSQTLSLTCTVSGDSIGSGGFSWTWIRQPPGKGLEWIGNIYHSGGTYYNPSLKSRVTISIDNSTHFSLKLSSVTAADSAVYYCARDRGMVIKRRPWSYGLDVWGQGTTVSVSS", "VL": "QSVLTQPPSASGTPGQRVTISCSGGSSNIGSNSVSWYQHLPRTAPKLLIYSNNQRSSGVPDRFSGSKSGTSASLAISGLQSDDEADYYCAAWDDSLHVLFGGGTKLTVL"}, "B11": {"name": "WNV-95 (antibody, V domains shown)", "VH": "QVQLQESGPGLVKPSQTLSLTCTVSGGSINSGAFYWSWIRQHPGKGLEWIGFIYYSGSTYYNPSLRSRVTISVDTSKNQFSLKLISVTAADTAVYYCARDRPDDPGPYFDSWGRGTLVTVSS", "VL": "QSALTQPASVSGSPGQSITISCTGTSNDVGRYNSVSWYQQHPGNAPKLMIYDVSNRPSGVSNRFSGSKSGNTASLTISGLQAEDEADYYCSSYTSSSSVVFGGGTKLTVL"}, "B12": {"name": "WNV-97 (antibody, V domains shown)", "VH": "QVQLVESGGGLVQPGGSLRVSCAASGFTFSTYEMNWVRQAPGKGLEWVSYISNSGTIIYYADSVKGRFTISRDNAKNSLYLQMNSLRAEDTAIYYCGRVLRDRDVVAGPPARVWDYYYYGMDVWGQGTTVTVSS", "VL": "DIVMTQSPLSLPVTPGEPASISCRSSQSLLHSSGYNCLDWYLQKPGQSPQLLIYLRSNRASGVPDRFSGSGSGTDFTLKISRVEAEDVGVYYCMQTLQTPWTFGQGTKVEIK"}}, "note": "Numbering of substitutions follows the chain as printed.", "data": [{"biological_target": "T1, recombinant soluble WNV NS1 protein (Native Antigen) (West Nile virus, strain of bought …, UniProt Q9Q6P4)", "T1 construct": "also called recombinant WNV NS1; recombinant, hexameric WNV NS1; source: bought: Native Antigen", "T1 sequence (Q9Q6P4 792-1143)": "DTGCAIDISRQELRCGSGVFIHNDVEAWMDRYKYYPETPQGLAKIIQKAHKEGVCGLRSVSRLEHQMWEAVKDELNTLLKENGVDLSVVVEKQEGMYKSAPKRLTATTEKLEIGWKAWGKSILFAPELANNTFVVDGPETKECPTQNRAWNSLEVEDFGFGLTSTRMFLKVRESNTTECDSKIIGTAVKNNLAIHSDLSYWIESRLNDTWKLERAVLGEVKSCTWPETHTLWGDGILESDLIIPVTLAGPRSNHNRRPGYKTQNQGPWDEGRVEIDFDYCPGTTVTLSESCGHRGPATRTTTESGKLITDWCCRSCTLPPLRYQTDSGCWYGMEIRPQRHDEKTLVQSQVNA", "assay": "ELISA", "conditions": "both partners purified", "values": [{"binder": "B1", "binding result": "binds"}, {"binder": "B2", "binding result": "binds"}, {"binder": "B3", "binding result": "binds"}, {"binder": "B4", "binding result": "binds"}, {"binder": "B5", "binding result": "binds"}, {"binder": "B6", "binding result": "binds"}, {"binder": "B7", "binding result": "binds"}, {"binder": "B8", "binding result": "binds"}, {"binder": "B9", "binding result": "binds"}, {"binder": "B10", "binding result": "binds"}, {"binder": "B11", "binding result": "binds"}]}, {"biological_target": "T2, TBEV NS1 protein (Native Antigen) (Tick-borne encephalitis virus, strain …, UniProt P14336)", "T2 construct": "source: bought: Native Antigen", "T2 sequence (P14336 777-1128)": "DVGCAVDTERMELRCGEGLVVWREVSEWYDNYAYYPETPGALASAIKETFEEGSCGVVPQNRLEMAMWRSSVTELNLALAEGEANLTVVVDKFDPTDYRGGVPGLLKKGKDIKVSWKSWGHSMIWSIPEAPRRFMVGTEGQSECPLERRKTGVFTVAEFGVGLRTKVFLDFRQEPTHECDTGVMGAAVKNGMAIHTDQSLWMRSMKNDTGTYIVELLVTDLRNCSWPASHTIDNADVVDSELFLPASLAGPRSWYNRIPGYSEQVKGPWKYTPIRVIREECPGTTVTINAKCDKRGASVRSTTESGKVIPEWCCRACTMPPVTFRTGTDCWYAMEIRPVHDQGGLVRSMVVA", "assay": "ELISA", "conditions": "both partners purified", "values": [{"binder": "B2", "binding result": "binds"}, {"binder": "B12", "binding result": "binds"}, {"binder": "B10", "binding result": "binds"}]}, {"biological_target": "T3, DENV2 NS1 protein (Native Antigen) (Dengue virus type 2, strain  …, UniProt P29990)", "T3 construct": "source: bought: Native Antigen", "T3 sequence (P29990 776-1127)": "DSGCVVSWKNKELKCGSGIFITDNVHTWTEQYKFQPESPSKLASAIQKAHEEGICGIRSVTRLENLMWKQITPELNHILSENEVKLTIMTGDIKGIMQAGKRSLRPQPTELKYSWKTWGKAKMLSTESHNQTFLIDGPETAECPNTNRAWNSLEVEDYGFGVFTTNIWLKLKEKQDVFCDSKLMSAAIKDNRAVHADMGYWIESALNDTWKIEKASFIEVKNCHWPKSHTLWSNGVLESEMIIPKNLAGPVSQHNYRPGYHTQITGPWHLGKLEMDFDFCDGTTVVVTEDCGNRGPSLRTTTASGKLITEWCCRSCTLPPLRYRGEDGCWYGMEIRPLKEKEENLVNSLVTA", "assay": "ELISA", "conditions": "both partners purified", "values": [{"binder": "B10", "binding result": "binds"}]}, {"biological_target": "T4, JEV NS1 protein (Native Antigen) (Japanese encephalitis virus, strain not …, UniProt P27395)", "T4 construct": "source: bought: Native Antigen", "T4 sequence (P27395 795-1146)": "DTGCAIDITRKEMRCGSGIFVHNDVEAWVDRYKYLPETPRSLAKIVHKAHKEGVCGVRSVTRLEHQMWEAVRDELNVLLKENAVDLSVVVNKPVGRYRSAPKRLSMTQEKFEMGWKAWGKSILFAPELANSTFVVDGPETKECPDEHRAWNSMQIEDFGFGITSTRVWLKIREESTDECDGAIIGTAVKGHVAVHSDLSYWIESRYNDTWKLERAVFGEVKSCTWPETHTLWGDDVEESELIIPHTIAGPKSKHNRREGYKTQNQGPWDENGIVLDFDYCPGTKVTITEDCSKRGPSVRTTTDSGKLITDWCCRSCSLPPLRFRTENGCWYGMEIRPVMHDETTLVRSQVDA", "assay": "ELISA", "conditions": "both partners purified", "values": [{"binder": "B2", "binding result": "binds"}, {"binder": "B6", "binding result": "binds"}, {"binder": "B10", "binding result": "binds"}]}, {"biological_target": "T5, full-length WNV NS1 (strain 382-99), wild type, expressed in HEK293T cells (West Nile virus, New York 1999, strain …, UniProt Q9Q6P4)", "T5 construct": "also called WT NS1; WT WNV NS1; source: HEK293T, transfected (pFM-A1.2), on fixed cells", "T5 sequence (Q9Q6P4 792-1143)": "as the sequence (Q9Q6P4 792-1143) above", "assay": "flow cytometry on cells", "conditions": "one partner purified", "values": [{"binder": "B1", "binding result": "binds"}, {"binder": "B2", "binding result": "binds"}, {"binder": "B3", "binding result": "binds"}, {"binder": "B4", "binding result": "binds"}, {"binder": "B5", "binding result": "binds"}, {"binder": "B6", "binding result": "binds"}, {"binder": "B7", "binding result": "binds"}, {"binder": "B8", "binding result": "binds"}, {"binder": "B9", "binding result": "binds"}, {"binder": "B10", "binding result": "binds"}, {"binder": "B11", "binding result": "binds"}]}]}
